Results on one molecule are retold here after US20200069813A1 (S M DISCOVERY GROUP, published 2020).

Where no end group is shown, it is not given here. 5‑FAM = fluorescein amidite

In assay [1] the target is T1, receptor for advanced glycation end products (RAGE) (human, UniProt Q15109 23-404).
T1 construct: whole, on cells; Endogenous receptor on hCMEC/D3 cells; No purified receptor was used; also called RAGE receptor
Briefly: Uptake by hCMEC/D3 cells after RAGE siRNA knock-down, FACS and fluorescence microscopy.

Assay [2] deals with T2, transferrin receptor (TFRC) (human, UniProt P02786 1-760).
T2 construct: whole, on cells; Endogenous receptor on hCMEC/D3 cells; No purified receptor was used
Briefly: Uptake by hCMEC/D3 cells after TFRC siRNA knock-down, FACS and fluorescence microscopy. How it is done:
Cell nucleus stained with Hoechest 33342, Insert bars=50 μm.
The commercial transfection reagent siPORT Amine/TFRC siRNA complex was incubated for 72 h in hCMEC/D3 cells including an unspecific siRNA (siControl) as control.

T1 sequence (Q15109 23-404): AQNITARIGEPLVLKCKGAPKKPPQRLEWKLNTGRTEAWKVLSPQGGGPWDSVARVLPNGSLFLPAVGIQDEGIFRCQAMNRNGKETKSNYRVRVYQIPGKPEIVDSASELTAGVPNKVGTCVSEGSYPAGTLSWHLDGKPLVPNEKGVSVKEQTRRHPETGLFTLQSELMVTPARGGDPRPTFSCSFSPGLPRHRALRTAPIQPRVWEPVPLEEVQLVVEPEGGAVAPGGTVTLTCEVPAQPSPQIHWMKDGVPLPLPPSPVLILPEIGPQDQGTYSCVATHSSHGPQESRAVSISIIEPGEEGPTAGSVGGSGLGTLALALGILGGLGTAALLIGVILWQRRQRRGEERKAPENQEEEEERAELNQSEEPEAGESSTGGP
T2 sequence (P02786 whole entry): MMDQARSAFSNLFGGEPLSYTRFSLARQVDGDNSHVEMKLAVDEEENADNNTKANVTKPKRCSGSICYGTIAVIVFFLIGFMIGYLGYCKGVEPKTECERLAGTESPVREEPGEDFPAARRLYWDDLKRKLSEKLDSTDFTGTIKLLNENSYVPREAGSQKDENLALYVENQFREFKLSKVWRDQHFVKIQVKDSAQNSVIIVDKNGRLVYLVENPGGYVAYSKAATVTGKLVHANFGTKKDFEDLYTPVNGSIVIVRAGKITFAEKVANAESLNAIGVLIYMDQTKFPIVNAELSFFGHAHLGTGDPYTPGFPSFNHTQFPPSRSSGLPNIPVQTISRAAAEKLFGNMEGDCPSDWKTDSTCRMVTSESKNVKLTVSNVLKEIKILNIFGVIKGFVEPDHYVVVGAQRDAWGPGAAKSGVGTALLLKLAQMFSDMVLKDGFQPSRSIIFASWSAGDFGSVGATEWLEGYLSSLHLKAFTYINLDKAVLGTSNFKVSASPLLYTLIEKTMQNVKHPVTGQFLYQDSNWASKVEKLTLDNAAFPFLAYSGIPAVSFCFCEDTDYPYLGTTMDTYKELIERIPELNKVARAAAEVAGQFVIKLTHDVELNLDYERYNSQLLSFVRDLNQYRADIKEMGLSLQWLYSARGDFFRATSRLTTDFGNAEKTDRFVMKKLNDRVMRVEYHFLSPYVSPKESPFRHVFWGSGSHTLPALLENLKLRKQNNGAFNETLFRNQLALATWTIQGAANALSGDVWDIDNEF

B1: FAM-CGY peptide (5-FAM-Cys-Gly-Tyr-Arg-Pro-Val-His-Asn-Ile-Arg-Gly-His-Trp-Ala-Pro-Gly) (peptide)
peptide: {5‑FAM}-CGYRPVHNIRGHWAPG
modifications: also: forms assemblies with intermolecular Cys disulfides
notes: Synthetic peptide conjugate; also called FAM-CGY nanoparticles; FAM-CGY peptidic nanoparticles
For B1, the binding result in assay [1] and in assay [2] was “binds” throughout.
